T1: Recombinant human FAP (fibroblast activation protein) (human, UniProt Q12884 26-760)
T1 sequence (looked up): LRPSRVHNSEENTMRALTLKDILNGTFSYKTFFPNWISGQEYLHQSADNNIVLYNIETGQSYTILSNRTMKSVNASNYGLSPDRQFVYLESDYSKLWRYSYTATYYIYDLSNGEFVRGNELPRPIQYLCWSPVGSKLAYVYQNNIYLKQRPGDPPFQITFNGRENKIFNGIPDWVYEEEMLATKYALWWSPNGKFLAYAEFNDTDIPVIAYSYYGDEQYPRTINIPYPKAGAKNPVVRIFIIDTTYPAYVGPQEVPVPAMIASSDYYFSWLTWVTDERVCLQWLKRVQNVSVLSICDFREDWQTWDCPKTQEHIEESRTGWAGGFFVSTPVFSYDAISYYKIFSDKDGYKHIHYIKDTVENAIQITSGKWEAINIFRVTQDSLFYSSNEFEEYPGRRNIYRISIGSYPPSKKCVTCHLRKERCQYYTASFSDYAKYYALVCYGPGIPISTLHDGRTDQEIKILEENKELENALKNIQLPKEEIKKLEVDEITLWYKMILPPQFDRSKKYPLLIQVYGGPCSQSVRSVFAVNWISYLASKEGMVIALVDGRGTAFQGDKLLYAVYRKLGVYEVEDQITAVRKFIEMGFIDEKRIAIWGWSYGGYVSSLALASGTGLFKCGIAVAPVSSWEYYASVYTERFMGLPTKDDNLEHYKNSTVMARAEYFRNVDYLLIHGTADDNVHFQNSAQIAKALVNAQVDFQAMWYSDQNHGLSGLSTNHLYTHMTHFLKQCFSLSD

T2: Human FAP expressed on the cell surface (WI38, CHO-FAP1.9, U87MG cells) (human, UniProt Q12884 1-760)
T2 construct: whole, on cells; Endogenous on WI38 and U87MG cells; from a human FAP cDNA (OriGene) in CHO-FAP1.9 cells; also called hFAP; FAP+ cells
T2 sequence (looked up): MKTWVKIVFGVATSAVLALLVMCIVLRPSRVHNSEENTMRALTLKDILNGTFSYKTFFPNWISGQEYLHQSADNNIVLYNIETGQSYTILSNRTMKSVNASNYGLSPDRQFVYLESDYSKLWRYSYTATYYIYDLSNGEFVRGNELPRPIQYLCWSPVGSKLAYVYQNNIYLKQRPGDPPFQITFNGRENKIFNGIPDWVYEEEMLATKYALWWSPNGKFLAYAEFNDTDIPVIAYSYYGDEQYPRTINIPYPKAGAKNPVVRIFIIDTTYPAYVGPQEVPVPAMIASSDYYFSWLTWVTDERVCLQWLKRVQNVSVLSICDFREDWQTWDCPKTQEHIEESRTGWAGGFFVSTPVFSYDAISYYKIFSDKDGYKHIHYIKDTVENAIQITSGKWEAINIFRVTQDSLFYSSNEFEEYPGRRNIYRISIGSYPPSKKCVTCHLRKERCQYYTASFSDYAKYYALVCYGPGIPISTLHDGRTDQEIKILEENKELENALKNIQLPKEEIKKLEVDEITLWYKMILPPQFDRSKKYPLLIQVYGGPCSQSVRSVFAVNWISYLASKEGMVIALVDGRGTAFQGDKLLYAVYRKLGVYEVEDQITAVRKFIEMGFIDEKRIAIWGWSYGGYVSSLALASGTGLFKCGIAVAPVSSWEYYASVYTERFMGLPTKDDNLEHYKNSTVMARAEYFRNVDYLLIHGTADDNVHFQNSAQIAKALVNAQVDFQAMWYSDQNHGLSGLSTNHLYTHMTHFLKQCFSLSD


Tests used:
[1] = target: T1, Recombinant human FAP (fibroblast …); assay: cell-based or functional assay
[2] = target: T2, Human FAP expressed on the cell surface …; assay: FACS on FAP-expressing WI38 cells, Penta-His AF647 detection
Protocol: Using multi-well plates, 20,000 WI38 cells were added per well in 50 μl of PBS. 50 μl of appropriate dilutions (2× dilution steps) of ankyrin repeat protein was then added to the cells and incubated for 30 minutes on ice. After the ankyrin repeat protein-binding reaction, cells were washed twice with PBS. Direct immunofluorescent detection of the His-tagged ankyrin repeat proteins using Penta-His AF647 conjugate (QIAgen) and determination of live cells using LIVE/DEAD™ Fixable Green Dead Cell Stain Kit (ThermoFisher) were then performed together in one step. The Penta-His AF647 conjugate and the LIVE/DEAD™ Fixable Green dye were applied to the cells together in 1/200 (Penta-His) and 1/1000 (LID Fixable) final dilutions and incubated for 20-30 minutes on ice. After washing the cells with PBS, cells were re-suspended in 1× CellFix™ buffer (BD Biosciences) (10× stock was diluted 1/10 in water). The samples were incubated in CellFix™ buffer for 15-20 minutes at RT, then spun down at 400 g for 5 min. Supernatant was discarded and cells were re-suspended in 200 μl PBS and stored at 4° C. until acquisition and FACS analysis. Acquisition and FACS analysis, including the determination of median fluorescence intensity (MFI), were done within 5 days after staining using an AttuneNxT instrument. Binding curves were fitted by non-linear regression curve fitting using GraphPad Prism software (v 7.0.4).
EC₅₀ values were determined using standard procedures known to the person skilled in the art. […] Table 2 provides the EC₅₀ values of selected ankyrin repeat proteins as examples.

[3] = target: T1, Recombinant human FAP (fibroblast …); assay: SPR (ProteOn), human FAP immobilized on GLC chip
Protocol: Briefly, human FAP was diluted in 10 mM Na-acetate pH 5.3 buffer and covalently immobilized on a GLC chip (BioRad) to a level of around 2000 resonance units (RU). The interaction of ankyrin repeat protein and hFAP was then measured by injecting 200 μl running buffer (PBS, pH 7.4 containing 0.005% Tween 20®) containing serial dilutions of ankyrin repeat proteins covering a concentration range between 30 nM and 0.5 nM (on-rate measurement), followed by a running buffer flow for at least 25 minutes at a constant flow rate of 100 μl/min (off-rate measurement). The regeneration was performed using 15 μl of 10 mM Glycine pH 2 followed by 15 μl of 124 mM H₃PO₄. The signals (i.e. resonance unit (RU) values) of the interspots and a reference injection (i.e. injection of running buffer only) were subtracted from the RU traces obtained after injection of ankyrin repeat protein (double-referencing). Based on the SPR traces obtained from the on-rate and off-rate measurements, the on- and off-rate of the corresponding ankyrin repeat protein—FAP interaction was determined.
Dissociation constants (KD) were calculated from the estimated on- and off-rates using standard procedures known to the person skilled in the art. […] Table 1 provides the KD values of some selected ankyrin repeat proteins as examples.

| FAP activity (%) [1] | EC50 [2] | Kd [3] | Binder |
| --- | --- | --- | --- |
| 103% | 654 pM | – | DARPin® protein #5 (designed binder) MRGSHHHHHHGSYPYDVPDYAGSDLGYTLLEAARRGQDDEVRELLKAGADVNAKDTIGYTPLHYAAQVGHLEIVEVLLKAGADVNAKDTQGITPLHVAAATGHLEIVEVLLKAGADVNAQDSKGRTPADLAAEQGHEDIAEVLQKLN |
| 110% | – | – | DARPin® protein #25 (designed binder) MRGSHHHHHHGSYPYDVPDYAGSDLGYKLLEAARRGQDDEVRELLKAGADVNAKDVIGYTPLHYAASEGHLEIVEVLLKAGADVNAKDTKGITPLHVAASTGHLEIVEVLLKAGADVNAQDLRGYTPADLAARQGHEDIGEVLQKLN |
| 97% | – | 23 pM | DARPin® protein #16 (designed binder) MRGSHHHHHHGSYPYDVPDYAGSDLGKKLLEAARAGQDDEVRILMANGTDVNATDMTGRTPLHLAALYGHLEIVEVLLKYGADVNALDKFGITPLHLAAFMGHLEIVEVLLKYGADVNAADLDGRTPLHPTAYRGHLEIVEVLLKNGADVNAQDKFGKTAFDISIDNGNEDLAEILQKLN |
| 88% | 307 pM | 10 pM | DARPin® protein #13 (designed binder) MRGSHHHHHHGSYPYDVPDYAGSDLGKKLLEAARAGQDDEVRILLAAGADVNAKDDWGWTPLHLAARHGHLEIVEVLLKAGTDVNAKDKRGVTPLHLAAYIGHLEIAEVLLKAGADVNAKDFQGWTPLHLAAVRGHLEIVEVLLKAGADVNAQDKSGKTPADLAADAGHEDIAEVLQKLN |
| 146% | – | 303 pM | DARPin® protein #6 (designed binder) MRGSHHHHHHGSYPYDVPDYAGSDLGKKLLEAARAGQDDEVRELLKAGADVNAKDEWGKTPLHYAAALGHLEIVEVLLKAGADVNAKDQYGATPLHIAAFAGHLEIVEVLLKAGADVNAKDAWGFTPLHLAATRGHLEIVEVLLKAGADVNAQDKSGKTPADLAADAGHEDIVEVLQKLN |
| 97% | – | 120 pM | DARPin® protein #8 (designed binder) MRGSHHHHHHGSYPYDVPDYAGSDLGKKLLEAARAGQDDEVRELLKAGADVNAKDQHGKTPLHYAAALGHLEIVEVLLKAGADVNAKDRWGATPLHIAAFAGHLEIVEVLLKAGADVNAKDEVGWTPLHLAARFGHLEIVEVLLKAGADVNAQDKSGKTPADLAADAGHEDIVEVLQKLN |
| 123% | – | 97 pM | DARPin® protein #31 (designed binder) MRGSHHHHHHGSYPYDVPDYAGSDLGKKLLEAARAGQDDEVRELLKAGADVNAKDEFGKTPLHLAAALGHLEIVEVLLKAGADVNAKGLWGETPLHVAAFAGHLEIVEVLLKAGADVNAKDTYGYTPLHLAASRGHLEIVEVLLKAGADVNAQDKSGKTPADLAADAGHEDIAEVLQKLN |
| 115% | 3170 pM | 3600 pM | DARPin® protein #1 (designed binder) MRGSHHHHHHGSYPYDVPDYAGSDLGKKLLEAARAGQDDEVRILLAAGADVNAKDQYGITPLHLAAFRGHLEIVEVLLKHGAGVNADDMDGRTPLHPAAYKGHLEIVEVLLKNGADVNAQDKFGKTAFDISIDNGNEDLAEILQKLN |
| 120% | 512 pM | 10400 pM | DARPin® protein #10 (designed binder) MRGSHHHHHHGSYPYDVPDYAGSDLGKKLLEATRAGQDDEVRILLAAGADVNAKDEYGITPLHLAAFRGHLEIVEVLLKHGADVNAIDYNGRTPLHPAAYSGHLEIVEVLLKYGADVNAQDKFGKTAFDISIDNGNEDLAEILQKLN |
| 96% | – | 63 pM | DARPin® protein #17 (designed binder) MRGSHHHHHHGSYPYDVPDYAGSDLGKKLLEAARAGQDDEVRILMANGADVNATDLMGRTPLHLAASRGHLEIVEVLLKNGADVNADDKYGITSLHLAAFLGHLEIVEVLLKYGADVNAIDFDGRTPLHPAAYRGHLEIVEVLLKHGADVNAQDKFGQTAFDISIDNGNEDLAEILQKLN |
| 104% | – | 115 pM | DARPin® protein #20 (designed binder) MRGSHHHHHHGSYPYDVPDYAGSDLGEKLLIAALFGQDEEVRILLAAGADVNAKDEWGHTPLHKAALSGHLEIVEVLLKAGADVNAKDQKGSTPLHWAATRGHLEIVEVLLKAGADVNAQDHIGRTPADLAANFGHEDIAEVLQKLN |
| 117% | 523 pM | 57 pM | DARPin® protein #11 (designed binder) MRGSHHHHHHGSYPYDVPDYAGSDLGKKLLEAARAGQDDEVRILLAAGADVNAKDTWGWTPLHLAAKSGHLEIVEVLLKAGADVNAKDYHGVTPLHLATFWGHLEIVEVLLKAGADVNAKDWYGETPLHLAAIRGHLEIVEVLLKAGADVNAQDKSGKTPADLAADAGHEDIAEVLQKLN |
| 114% | 789 pM | 194 pM | DARPin® protein #12 (designed binder) MRGSHHHHHHGSYPYDVPDYAGSDLGKKLLEAARAGQDDEVRILLAAGADVSAKDQWGWTPLHLAARVGHLEIVEVLLKAGADVNAKDVRGVTPLHLAAFHGHLEIVEVLLKAGADVNAKDYAGHTPLHLAAWQGHLEIIEDLLKAGADVNAQDKSGKTPADLAADAGHEDIAEVLQKLN |
